Substitutions are numbered along the chain they refer to. One block for each molecule: values may come before it.
Legend:
[1] = molecular target: human PKD1 kinase domain (PKD1^CAT, residues 569–892) (human) (UniProt Q15139); assay: fluorescence polarisation; fluorescence anisotropy; 195 μM PKD1^CAT with 80 nM Atto488-labeled PKD1^CAT successively diluted with buffer containing 80 nM labeled protein; 50 mM Tris pH 7.5, 220 mM KCl, 1% glycerol, 1 mM TCEP; 20 °C; single binding model; dimer to monomers
[2] = molecular target: human PKD1 kinase domain (PKD1^CAT, residues 569–892) (human) (UniProt Q15139); assay: SEC-MALS; PKD1^CAT, first run, 625 μg injected
[3] = molecular target: the molecule itself; assay: SEC-MALS; Superdex 200 10/300; 20 mM Tris pH 7.5, 150 mM KCl, 1 mM TCEP; 50 μl of 2.5 mg/ml protein injected
[4] = molecular target: the molecule itself; assay: fluorescence polarisation; fluorescence anisotropy; unlabeled PKD1 ULD (800 μM stock) titrated into 40 nM Atto488-labeled PKD1 ULD; 20 mM Tris pH 7.5, 150 mM KCl, 1 mM TCEP, 1% glycerol; 20 °C; single binding model; dimer to monomers
[5] = molecular target: T1, Atto488-labeled DKF-1 ULD^R42C (C. elegans, UniProt Q9XUJ7 1-94, R42C, Atto488 (maleimide-conjugated) on cysteine 42); assay: fluorescence polarisation; fluorescence anisotropy; ULD or ULD^F59E (222 or 150 μM stock) titrated into 35–70 nM Atto488-ULD^R42C; 20 mM Tris pH 7.5, 150 mM KCl, 1% glycerol, 1 mM TCEP; 20 °C; single-site binding model; dimer to monomers; settings: both partners purified
T1 construct: C. elegans DKF-1, residues 1-94 (ubiquitin-like domain) with the surface-exposed arginine 42 mutated to cysteine; Labeling efficiency estimated at about 80%; also called Atto488-ULD^R42C; source: E. coli BL21*, purified in the same way as the WT counterpart, labelled with maleimide-Atto488; not shown: GST, N-terminal, cleaved
T1 sequence (looked up): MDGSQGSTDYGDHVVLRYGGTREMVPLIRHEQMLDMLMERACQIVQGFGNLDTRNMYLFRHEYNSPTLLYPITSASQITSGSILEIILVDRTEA

Kd [1]: 50000 nM
stoichiometry N [2]: 2
Molecule: human PKD1 kinase domain (PKD1^CAT, residues 569–892) (from UniProt Q15139 569-892) (domain or fragment)

B1: human PKD3 ULD (PKD3^55–149) (domain or fragment, UniProt O94806 55-149, looked up)
chain: GSVHTVSFLLQIGLTRESVTIEAQELSLSAVKDLVCSIVYQKFPECGFFGMYDKILLFRHDMNSENILQLITSADEIHEGDLVEVVLSALATVED
notes: human protein kinase D3 (PKD3), residues 55-149 (ubiquitin-like domain); also called ULD of human PKD3; source: E. coli BL21*, purified (GSH beads, TEV cleavage on beads, SEC); not shown: GST, N-terminal, cleaved
stoichiometry N [3]: 2

B2: DKF-1 ULD–C1a (DKF-1^1–151) (domain or fragment, C. elegans, UniProt Q9XUJ7 1-151, looked up)
chain: MDGSQGSTDYGDHVVLRYGGTREMVPLIRHEQMLDMLMERARQIVQGFGNLDTRNMYLFRHEYNSPTLLYPITSASQITSGSILEIILVDRTEAAVIPHVVEPESYMRPTFCDFCGEMLTGLMRQGVKCKNCNGNFHKRCSNAARNNCGAP
notes: C. elegans PKD homolog DKF-1, residues 1-151 (ubiquitin-like domain and C1a domain); The final crystallographic model comprises residues 12-151; also called PKD N terminus; source: E. coli BL21*, purified (GSH beads, TEV cleavage on beads, SEC); not shown: GST, N-terminal, cleaved
stoichiometry N [3]: 2

B3: human PKD1 ULD (PKD1^48–143) (domain or fragment, UniProt Q15139 48-143, looked up)
chain: GISFHLQIGLSREPVLLLQDSSGDYSLAHVREMACSIVDQKFPECGFYGMYDKILLFRHDPTSENILQLVKAASDIQEGDLIEVVLSASATFEDFQ
notes: human protein kinase D1 (PKD1), residues 48-143 (ubiquitin-like domain); In the anisotropy titration 40 nM of the same protein carried Atto488 (maleimide) on its surface-exposed cysteines (labeling efficiency 50%); Addgene 31527 is the plasmid carrying the PKD1 gene; also called ULD of human PKD1; source: E. coli BL21*, purified (GSH beads, TEV cleavage on beads, SEC); not shown: GST, N-terminal, …
Kd [4]: 1700 ± 200 nM
stoichiometry N [3]: 2

Kd [5]: 650 ± 70 nM
B4: DKF-1 ULD (DKF-1^1–94) (domain or fragment, C. elegans, UniProt Q9XUJ7 1-94, looked up)
chain: T1 sequence (looked up) with C42R
notes: C. elegans PKD homolog DKF-1, residues 1-94 (ubiquitin-like domain); also called ULD^WT; source: E. coli BL21*, purified (GSH beads, TEV cleavage on beads, SEC); not shown: GST, N-terminal, cleaved
stoichiometry N [3]: 2
